Experimental data reported in US20130337050A1 (IMMUNOFUTURE, published 2013).

B1: GST-mTfR1 (GST-fused recombinant protein of the partial sequence 321-329 of mouse transferrin receptor 1) (other, not shown: a dimerising Fc or GST)
chain: TQFPPSQSS

How the values were obtained:
Experiment in all cases: amylose resin pull-down, western blotting with anti-GST antibody
[1] = target: B1
[2] = target: MBP-VP1BC loop (fused recombinant protein of VP1BC loop and MBP) (poliovirus)
[3] = target: MBP-VP1 GH strand I (fused recombinant protein of VP1 GH strand I and MBP) (poliovirus)

Binder: ALGDSLYGAASLN (other) [MBP-VP1 GH loop (fused recombinant protein of VP1 GH loop and MBP)]
- binding result [1]: binds

Binder: B1
- binding result [2]: binds
- binding result [3]: binds

Binder: SKVPLKDQSAALGDSLYGAASLNDFGILAVRVV (other) [MBP-VP1 GH strand II (fused recombinant protein of VP1 GH strand II and MBP)]
- binding result [1]: binds

Binder: STKDLTTY (other) [MBP-VP1C terminal region (fused recombinant protein of VP1C terminal region and MBP)]
- binding result [1]: binds
